Tested on: acetylated histone H3
Details: ChIP with qPCR

Substance	binding signal (reference (10-fold lower than treated)) (5mC in CpG island, untreated HCT15 cells)	binding signal (fold enrichment vs untreated) (HCT15 cells treated with 2 uM 5-azacytidine)
p16 5'-UTR CpG island region, methylated (untreated HCT15)	1	–
p16 5'-UTR CpG island region, unmethylated (5-azacytidine-treated HCT15)	–	10

From US20020081603
